The text below walks through data of patent US20130289253A1.

The target of assay [1] is control (Fig. 48). Kind of assay: flow cytometry, RT, 3.5 µg/ml; control.
Assay [2] has as its target HA peptide-stimulated PBMC (antigen-specific CD4+ T cells). The experiment in a line: flow cytometry, RT, 1.75 µg/ml; HA306-318 stim. For orientation: In flow cytometry, cells or beads pass a laser one at a time.
The target is the same in assay [3]. The experiment in a line: flow cytometry, staining at 4°C 1 h, 28 µg/ml; 5 min, no imidazole.
Assay [4] has as its target control (Fig. 48). The experiment in a line: flow cytometry, 4 °C; control.
In assay [5] the target is control (Fig. 48). Kind of assay: flow cytometry, RT; control; conventional BSP multimer, concentration not given.
Assay [6] concerns the target HA peptide-stimulated PBMC (antigen-specific CD4+ T cells). Kind of assay: flow cytometry, 4 °C; HA306-318 stim.
For assay [7] the target is unchanged. Kind of assay: flow cytometry, RT, 3.5 µg/ml; HA306-318 stim.
Assay [8] shares this target. The experiment in a line: flow cytometry, staining at 4°C 1 h, 28 µg/ml; 10 min, no imidazole.
For assay [9] the target is unchanged.
Assay [10] concerns the target control (Fig. 48). Kind of assay: flow cytometry, RT, 1.75 µg/ml; control.
The target in assay [11] is HA peptide-stimulated PBMC (antigen-specific CD4+ T cells). This is another data set of the same source.
Assay [12] shares this target. The experiment in a line: flow cytometry, staining at 4°C 1 h, 28 µg/ml; 0 min, no imidazole.
Assay [13] shares this target. Kind of assay: flow cytometry, RT, 7 µg/ml; HA306-318 stim.
Assay [14] shares this target. Kind of assay: flow cytometry, 37 °C 1 h, 10 µg/ml; HA306-318 stim.
The target is the same in assay [15]. Kind of assay: flow cytometry, staining at 4°C 1 h, 28 µg/ml; 3 min, no imidazole.
Assay [16] has as its target control (Fig. 48). The experiment in a line: flow cytometry, RT, 7 µg/ml; control.
For assay [17], the target named is HA peptide-stimulated PBMC (antigen-specific CD4+ T cells). The experiment in a line: flow cytometry, RT 1 h, 10 µg/ml; HA306-318 stim.
Assay [18] deals with control (Fig. 48).
In assay [19] the target is HA peptide-stimulated PBMC (antigen-specific CD4+ T cells). This is another data set of the same source.
For assay [20] the target is unchanged. Kind of assay: flow cytometry, staining at 4°C 1 h, 28 µg/ml; 1 min, no imidazole.

“And” between values parts separate entries of the source, which are not always exact repeats. Identical values can stand only once. Like-named read-outs stand apart in the source and are kept apart here.

Turning to “DR4 2×His DTB-HA306-318 complexes (DTB-streptactin purified monomers) (from UniProt P01903 26-216) (peptide-MHC)”, the % of cells in Q2 (multimer+ CD4+) in assay [1] was 0.222%; in assay [2], 7.23%; in [3], 4.59%; in assay [4], 0.355% and 0.561%; in [5], 0.121%; in assay [6], 2.52% and 2.3%. Besides, the % of cells in Q2 (multimer+ CD4+) amounted to 7.94% in [7]; 4.35% in assay [8]; 12.3% in assay [9]; 0.142% in [10]; 4.52% in [11]; 4.5% in [12]. Also, the % of cells in Q2 (multimer+ CD4+) in assay [13] was 6.15%; in assay [14], 6.23%; in [15] it was 4.68%; in assay [16], 0.11%; in [17], 5.35% and 3.3%; in [18], 0.384% and 0.618%. Besides, the % of cells in Q2 (multimer+ CD4+) in [19] was 24.9% and 9.81%; in assay [20], 5.3%.
